Measured values published in patent US7166426.
Where “and” joins values, the source holds several entries; their conditions need not be identical. Equal entries are not always repeated.

Columns and labels:
[1] = target: NS3/4a conformational epitope with Thr to Pro and Ser to Ile substitutions (hepatitis C virus, HCV-1 (HCV1a)) (UniProt P26664); experiment: ELISA, antigen coated on microtiter plate, negative control
c200 antigen [2] = experiment: as above
[3] = target: denatured NS3/4a (hepatitis C virus, HCV-1 (HCV1a)) (UniProt P26664); experiment: as above
[4] = target: NS3/4a conformational epitope with Thr to Pro and Ser to Ile substitutions (hepatitis C virus, HCV-1 (HCV1a)) (UniProt P26664); experiment: ELISA, antigen coated on microtiter plate, average of the negative controls
c200 antigen [5] = experiment: as above
[6] = target: denatured NS3/4a (hepatitis C virus, HCV-1 (HCV1a)) (UniProt P26664); experiment: as above

In the case of HCV 3.0 Controls, negative control, the OD [1] was 0.023 OD and 0.027 OD and 0.021 OD, the OD (c200 antigen [2]) was 0.008 OD and 0.007 OD and 0.005 OD and the OD [3] was 0.024 OD and 0.017 OD. The OD (average of Neg. Cont.) [4] was 0.024 OD, the OD (average of Neg. Cont.) (c200 antigen [5]) was 0.007 OD and the OD (average of Neg. Cont.) [6] was 0.022 OD.
